Among the data in the supplement of paper PMC12042874 are amyloid nucleation score values, retold here.

± gives the uncertainty stated by the source.

The data set can be described thus: amyloid nucleation score (Sup35N fusion, yeast selection) (log enrichment); library NNK3; higher = more nucleation; inactive = no reads after selection. The procedure, abridged:
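Peptides of 20 random codons fused to Sup35N were expressed in psi-negative yeast, induced 24 hours with 100 μM copper sulfate, then grown 7 days at 30°C on medium lacking adenine and uracil. Input and output plasmid inserts were Illumina-sequenced. Nucleation score is the DiMSum log enrichment of output over input reads, centred on the mode score of non-aggregating sequences, excluding sequences with under 100 input reads. Random libraries had three technical output replicates.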
Turning to VKFYNLRRCVIDLMITLSRM, the amyloid nucleation score entry was “inactive”. FRVYQNIDTERDSRTSPKES: the amyloid nucleation score entry was “inactive”. On to CQIKNGLDNQKTDYNSSPF, for which the amyloid nucleation score entry was “inactive”. As to SNVTRMVRFFWVEGPTEYWY, the amyloid nucleation score result was “inactive”. Turning to YRYMVRITCGCFHAVNDT, the amyloid nucleation score was 1.19 ± 0.14. With VVIFFRIQRVTCVWNVLL, the amyloid nucleation score result is “inactive”. With EGVTII, the amyloid nucleation score result was “inactive”. For the substance WSTPWMWVRFGRIDHCSLGV, the amyloid nucleation score result is “inactive”. Take YSCFFIPWRVGAYRTDNFRS: the amyloid nucleation score entry is “inactive”. As for CNFVNSKRNFLYTLG, the amyloid nucleation score entry was “inactive”. The result for VFYSLMILSLLNSRRDGLHQ reads 0.429 ± 0.48; that for SNTHLYCLMFRLPCRILDRK, “inactive”; that for MVGVGSKLGLLAATEVWNEI, “inactive”.

As for WCLSCVLTNIRVRIPNRTVV, the amyloid nucleation score result was “inactive”. Take RIRKRQCWSFVLLLYCGCVT: the amyloid nucleation score entry was “inactive”.

As for RAFMVSVSHCRMCWIWC, the amyloid nucleation score entry was “inactive”.

NDVKFGSGR: the amyloid nucleation score entry is “inactive”. Then SSVYCL, with -0.781 ± 1.3. Then PFENR, with “inactive”; and KFYDSISRLQNERGPVIFPR, with “inactive”; and GFYWYTVFAVSLDDCLSKSS, with “inactive”. Substance VNTFVFTGFCMYSFVMSWLN registered an amyloid nucleation score of 0.525 ± 0.2. Regarding RRTMFPAMIIS, the amyloid nucleation score result is “inactive”. For the substance YHCVRLFRVPMTISRGDAQK, the amyloid nucleation score is -0.271 ± 0.59. VSTWGRDLVVTIAGR: the amyloid nucleation score entry was “inactive”. For the substance LIYVFIIFVMIFWVCCTMRS, the amyloid nucleation score was 0.166 ± 0.42. Consider FMDFRSYITGHNWIHAAWPA, for which the amyloid nucleation score result is “inactive”. As for VRFCGLLIGQVTWFLAVLEY, the amyloid nucleation score entry was “inactive”. YKSNLLSYGALLISDFVLVR returned an amyloid nucleation score of -0.108 ± 0.63. Take PKMSPSAMRSCDDLASPFIS: the amyloid nucleation score result was “inactive”.

On to RVVCAD, for which the amyloid nucleation score result is “inactive”.

Regarding IDSCLQNSP, the amyloid nucleation score result is “inactive”. Turning to ACYITTFLGADSVVEYQNDE, the amyloid nucleation score entry is “inactive”. RSSPEDPLTSFLGYTGMTAS: the amyloid nucleation score result is “inactive”. The substance SFSYNAQLYTQVVMSRYKMR gave an amyloid nucleation score of -0.193 ± 0.48. In the case of CTRNEYIEW, the amyloid nucleation score result was “inactive”. For the substance ICDKRWVC, the amyloid nucleation score result is “inactive”. RDIASQC showed an amyloid nucleation score of -0.698 ± 0.98. The result for VSDIGCMGVDSLSPGYHNIV reads “inactive”. IYLIPITPIPVCYKIFLFGM registered an amyloid nucleation score of 1.19 ± 0.079. Turning to NLMGRCTEFRKYI, the amyloid nucleation score result is “inactive”.

Consider DVLHLRCREVRRDVGYVTEF, for which the amyloid nucleation score entry was “inactive”. As for FLDFTWMKHGTLALPQAAHQ, the amyloid nucleation score result is “inactive”.

Regarding SVSHAE, the amyloid nucleation score entry was “inactive”. On to KSRERFLCSKGMSPQQTHMY, for which the amyloid nucleation score entry is “inactive”. Turning to KYKSVCVKFNEDLTG, the amyloid nucleation score entry was “inactive”. The result for LSSHS reads “inactive”; that for CCMVVTQYYARMMVWGNRPY, “inactive”. The result for CLVSLVFRFIVY reads “inactive”; that for PTITNS, “inactive”; that for AWVDWKWRNGRSLAS, “inactive”.

Take FYISREALLSIASRTLRARQ: the amyloid nucleation score result is “inactive”. AFKMVLIGFMSMVERSNVHG: the amyloid nucleation score entry is “inactive”. Regarding KWNRLLVMRLAVIECRARVA, the amyloid nucleation score was 0.033 ± 0.9.
